Values of other authors as cited in PMC8461181.

Target: GnIH (Coturnix japonica) (UniProt Q9DGD4)
Experiment: Scatchard analysis

For GPR147 (from UniProt Q9GZQ6), the Kd is listed as 752 pM.
